# Results published in US11274132B2, “Combined preparations of PKM2 modulators and HMGB1” (Ruprecht-Karls-Universität Heidelberg, priority 2015, dated 2022).
# B1: GInHMGB1: HMGB1 polypeptide with its B-Box domain tyrosine residues replaced by glutamine (SEQ ID NO:12), expressed in HEK cells (protein)
# chain: MGKGDPKKPRGKMSSYAFFVQTCREEHKKKHPDASVNFSEFSKKCSERWKTMSAKEKGKFEDMAKADKARYEREMKTYIPPKGETKKKFKDPNAPKRPPSAFFLFCSEQRPKIKGEHPGLSIGDVAKKLGEMWNNTAADDKQPQEKKAAKLKEKQEKDIAAQRAKGKPDAAKKGVVKAEKSKKKKEEEEDEEDEEDEEEEEDEEDEDEEEDDDDE
# modifications: HMGB1 Y -> Q mutein
# Assays:
# [1] = system: colon carcinoma cell lines; assay: LDH release assay; type: cell-based, human; settings: all colon carcinoma cell lines used; p<0.05, n=4
# Experimental: Lactate dehydrogenase activity was assayed spectrophotometrically by measuring the oxidation of NADH with pyruvate substrate at 340 nm as described in Bergmeyer and Berndt E. (1974). Results were analyzed using the following equation: […]
# [2] = system: colon carcinoma cell lines; assay: MTT assay; type: cell-based, human; settings: all colon carcinoma cell lines used; 0, 24, 48 hours; p<0.05, n=4
# Experimental: Assays were performed at three time points (0, 24, 48 hours), and the experiment was repeated four times. At each time point the cell viability was measured using the 3-(4,5-dimethylthiazol-2-yl)-2,5-diphenyl tetrazolium bromide (MTT) assay. The MTT assay was performed as described by Mosmann (Mosmann T. Rapid colorimetric assay for cellular growth and survival: application to proliferation and cytotoxicity assays. J Immunol Methods. 1983;65:55-63.). In brief, at each time point, medium was aspirated from the wells and MTT (1 mg/ml) was gently added to each well. The cells were incubated for 3 hours at 37° C. in 5% CO2, after which the MTT was aspirated and acidified isopropanol (0.04 M HCl) added to solubilize the reduced blue formazan crystals. Aliquots were transferred to a 96-well plate and the absorbance measured at a test filter of 590 nm and a reference filter of 630 nm on a 96-well plate reader.
molecule,measurement,setting,value
B1,release of LDH into the medium compared to the untreated control,[1],significant release of LDH
same,"proliferation (cell viability, MTT) compared to the untreated control",[2],significant decrease in proliferation
